Data: paper PMC12416549 (2024)
Residue numbers refer to the chain shown, from its start. Names may count otherwise.

Biological target: T1, TNFR1 (Homo sapiens, UniProt P19438)
T1 chain: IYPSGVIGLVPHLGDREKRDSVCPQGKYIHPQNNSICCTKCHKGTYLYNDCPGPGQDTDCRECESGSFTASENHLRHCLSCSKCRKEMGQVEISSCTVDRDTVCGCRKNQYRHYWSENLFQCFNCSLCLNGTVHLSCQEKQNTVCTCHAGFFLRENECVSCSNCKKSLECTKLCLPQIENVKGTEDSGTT
Experiment: yeast display SC50

B1: K72I (designed binder)
chain: MTLQELLREEALRRAEAEAFRYALELLAEKFPEQKEYLLDLAEEIESQIRSLSGVDVEDVRKFLDKEWAWVIELLAEHPAELAEVEAARAARLAELRAEVEAKVAA
apparent Kd (screen): 0.539 nM

B2: E81G (designed binder)
chain: B1 chain with I72K, E81G
apparent Kd (screen): 0.539 nM

B3: A106L (designed binder)
chain: B1 chain with I72K, A106L
apparent Kd (screen): 0.539 nM

B4: R13N (designed binder)
chain: B1 chain with R13N, I72K
apparent Kd (screen): 1.16 nM

B5: E77W (designed binder)
chain: B1 chain with I72K, E77W
apparent Kd (screen): 0.539 nM

B6: E86Y (designed binder)
chain: B1 chain with I72K, E86Y
apparent Kd (screen): 2.05 nM

B7: V100G (designed binder)
chain: B1 chain with I72K, V100G
apparent Kd (screen): 0.718 nM

B8: H78I (designed binder)
chain: B1 chain with I72K, H78I
apparent Kd (screen): 1.16 nM

B9: L96D (designed binder)
chain: B1 chain with I72K, L96D
apparent Kd (screen): 0.539 nM

B10: E9T (designed binder)
chain: B1 chain with E9T, I72K
apparent Kd (screen): 0.956 nM

B11: E16K (designed binder)
chain: B1 chain with E16K, I72K
apparent Kd (screen): 5.31 nM

B12: E99G (designed binder)
chain: B1 chain with I72K, E99G
apparent Kd (screen): 0.539 nM

B13: S53W (designed binder)
chain: B1 chain with S53W, I72K
apparent Kd (screen): 13.8 nM

B14: G54Y (designed binder)
chain: B1 chain with G54Y, I72K
apparent Kd (screen): 2.73 nM

B15: K103S (designed binder)
chain: B1 chain with I72K, K103S
apparent Kd (screen): 0.539 nM

B16: M1C (designed binder)
chain: B1 chain with M1C, I72K
apparent Kd (screen): 0.718 nM

B17: A94G (designed binder)
chain: B1 chain with I72K, A94G
apparent Kd (screen): 0.539 nM

B18: E84K (designed binder)
chain: B1 chain with I72K, E84K
apparent Kd (screen): 0.869 nM

B19: V57Y (designed binder)
chain: B1 chain with V57Y, I72K
apparent Kd (screen): 0.49 nM

B20: A15R (designed binder)
chain: B1 chain with A15R, I72K
apparent Kd (screen): 0.718 nM

B21: P79H (designed binder)
chain: B1 chain with I72K, P79H
apparent Kd (screen): 0.49 nM

B22: E77P (designed binder)
chain: B1 chain with I72K, E77P
apparent Kd (screen): 0.405 nM

B23: A106G (designed binder)
chain: B1 chain with I72K, A106G
apparent Kd (screen): 0.956 nM

B24: E25W (designed binder)
chain: B1 chain with E25W, I72K
apparent Kd (screen): 1.16 nM

B25: A28T (designed binder)
chain: B1 chain with A28T, I72K
apparent Kd (screen): 1.27 nM

B26: L41M (designed binder)
chain: B1 chain with L41M, I72K
apparent Kd (screen): 0.718 nM

B27: V104Y (designed binder)
chain: B1 chain with I72K, V104Y
apparent Kd (screen): 0.593 nM

B28: A106D (designed binder)
chain: B1 chain with I72K, A106D
apparent Kd (screen): 1.05 nM

B29: E5L (designed binder)
chain: B1 chain with E5L, I72K
apparent Kd (screen): 0.718 nM

B30: A11E (designed binder)
chain: B1 chain with A11E, I72K
apparent Kd (screen): 0.446 nM

B31: E86V (designed binder)
chain: B1 chain with I72K, E86V
apparent Kd (screen): 0.956 nM

B32: P32D (designed binder)
chain: B1 chain with P32D, I72K
apparent Kd (screen): 0.869 nM

B33: Y37V (designed binder)
chain: B1 chain with Y37V, I72K
apparent Kd (screen): 24.4 nM

B34: T2S (designed binder)
chain: B1 chain with T2S, I72K
apparent Kd (screen): 0.653 nM

B35: A105T (designed binder)
chain: B1 chain with I72K, A105T
apparent Kd (screen): 0.869 nM

B36: V100P (designed binder)
chain: B1 chain with I72K, V100P
apparent Kd (screen): 0.593 nM

B37: L82V (designed binder)
chain: B1 chain with I72K, L82V
apparent Kd (screen): 0.49 nM

B38: D59N (designed binder)
chain: B1 chain with D59N, I72K
apparent Kd (screen): 0.653 nM

B39: V104S (designed binder)
chain: B1 chain with I72K, V104S
apparent Kd (screen): 0.869 nM

B40: W70F (designed binder)
chain: B1 chain with W70F, I72K
apparent Kd (screen): 0.593 nM

B41: V104R (designed binder)
chain: B1 chain with I72K, V104R
apparent Kd (screen): 0.718 nM

B42: S47N (designed binder)
chain: B1 chain with S47N, I72K
apparent Kd (screen): 0.49 nM

B43: A11M (designed binder)
chain: B1 chain with A11M, I72K
apparent Kd (screen): 1.27 nM

B44: I49W (designed binder)
chain: B1 chain with I49W, I72K
apparent Kd (screen): 2.48 nM

B45: L12I (designed binder)
chain: B1 chain with L12I, I72K
apparent Kd (screen): 0.539 nM

B46: L3T (designed binder)
chain: B1 chain with L3T, I72K
apparent Kd (screen): 4.83 nM

B47: R21F (designed binder)
chain: B1 chain with R21F, I72K
apparent Kd (screen): 0.49 nM

B48: V71M (designed binder)
chain: B1 chain with V71M, I72K
apparent Kd (screen): 0.593 nM

B49: E99P (designed binder)
chain: B1 chain with I72K, E99P
apparent Kd (screen): 1.16 nM

B50: F20A (designed binder)
chain: B1 chain with F20A, I72K
apparent Kd (screen): 2.05 nM

B51: D65C (designed binder)
chain: B1 chain with D65C, I72K
apparent Kd (screen): 0.539 nM

B52: A42G (designed binder)
chain: B1 chain with A42G, I72K
apparent Kd (screen): 0.49 nM

B53: E77V (designed binder)
chain: B1 chain with I72K, E77V
apparent Kd (screen): 0.593 nM

B54: E16D (designed binder)
chain: B1 chain with E16D, I72K
apparent Kd (screen): 1.05 nM

B55: I45V (designed binder)
chain: B1 chain with I45V, I72K
apparent Kd (screen): 0.593 nM
